Data as given in the nanobody polyreactivity screen of Harvey et al. (2022).

Test: yeast display, Sf9 membrane polyspecificity reagent, FACS + sequencing; frameworks hold sequencing errors
In short: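 A nanobody's polyreactivity label depends on the gate it was sorted from. Yeast display cells were stained with 10% biotinylated, detergent-solubilized Sf9 membrane reagent for 1 hour at 4 °C, enriched on streptavidin microbeads and sorted by FACS. The low and high (top ~1%) gates were set on anti-HA fluorescence for expression and streptavidin fluorescence for reagent binding.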

Sequence	polyreactivity (PSR sort gate)
QVQLVESGGGLVQAGGSLLLSCAASGRIFRPYAMGWYRQAPGKERELVAAISSSGGSTYYADSVKGRFTISRDNAKNTVYLEMNSLKPEDTAVYYCAARITQISYGSEIEHPYYYWGQGTQVTVSS	high polyreactivity
QVQLVESGGGLVQAGGSLRLSCAASGRTFYQYAMGWYRQAPGKERELVAAISRSGTSTYYADSVKGRFTISRDNAKITVYLQMNSLKPEDTAVYYCATSTGRGYSWGQGTQVTVSS	high polyreactivity
QVQLVESGGGLVQAGGSLRLSCAASGRTFATNAMGWYRQAPGKERELVADISGGGSTYYADSVKGRFTISRDNAKNTVYLQMNSLKPEDTAVYYCAARDYHWFQWYDYWGQGTQVTVSS	low polyreactivity
QVQLVESGGGLVQAGGSLRLSCAASGRTFYAYGMGWYRQAPGKERELVARISSSTGRTYYADSVKGRFTISRDNAKNTVYLQMNSLKPEDTAVYYCAALFYGYRGGGYGGPAAGDYWGQGTQVTVSS	high polyreactivity
QVQHVESGGGLVQAGGSLRLSCAASGGTFYSYAMGWYRQAPGKERELVAAISRRGGSTYYADSVKGRFTISRDNAKNTVYLQLNSLKPEDTAVYYCAAKGPSYGVTRMYYWGQGTQVTVSS	high polyreactivity
QVQLVESGGGLVQAGGSLRLSCAASGSTFGANAMGWYRQARGKEREFVAAISRSGVRTYYADSVKGRFTISRDNAKNTVYLQMNSLKPEDTAVYYCAADGYWWTYTRYDYCGQGTQVTVSS	low polyreactivity
QVQLVESGGGLVQAGGSLRLSCAPSGSTFTYNAMGWYRQAPGKERELVASISSGTTTYYADSVKGRFTISRDNAKNTVYLQMNSLKPEDTAVYYCAVDSWSRVQGWLAHNYDYWGQGTQVTVSS	low polyreactivity
QVQLVESGGGLVQAGGSLRLSCAASGFILKDNAMGWYRQAPGKERELVAAISSGGGTYYADSVKGRFTISRDNAKNTVSLKMNSLKPEDTAVYYCNADDLYSLNDSSEDYWGQGTQVTVSS	high polyreactivity
QVQLVESGGGLVQAGGSLRLSCAASGSILHAYALGWYRQAPGTERELVAAINWSGGSTYYADSVKGRFTISRDNAKNTVYLQMNSLKPEDTAVYYCAKVWRYGRYEYGYWGQGTQVTVSS	high polyreactivity
QFHLVESGGGIVQAGGSLRLSCAASGFTFAYYAMGRNRQAPGKERELVAAISSGGRTYYADSVKGRFTISRDNAQNTVYLQLNSLKPEDTAVYYCKTVPYYDALTYPFDSWGQGTQVTVSS	low polyreactivity
QVQLVESGGGLVQAGGSLRLSCAASGRIFQYYDMGWYRQAPGKERELVAAITFSGGSTYYADSVKGRFTISRDNAKNTVYLQMNSLKPEDTAVYYCARGYWVYYPDGDYWGQGTQVTVSS	low polyreactivity
QVQLVESGGGLVQAGGSLRLSCAASGRIFSRNAMGWYRPAPGKERELVAAISWRGGRTYYADSVKGRFTISRDNAKNTVYLQMNSLKPEDTAVYYCNAVYRLSHYDLDYWGQGTQVTVSS	high polyreactivity
QVQLVESGGGLVQAGGSLRLSCAASGRIFYQNAMGWYRQAPGKERELVADISSGGSTYYADSVKGRFTISRDNAKNTVYLQMNSLKPEDTAVYYCNTPSGPGTVGSYRRKWYGYWGQGTQVTVSS	low polyreactivity
QLQLQESGGGLVQAGGSLRLSCAASGPITRRSTMGWYRQAPRKVRELVTAITRGTNTNYADSVKGRFTISRDNAKNTEYLQMNSLKPEDTAVYYCAAYGVLKPSRGDAVFLRYLGQGTQVTVSS	low polyreactivity
QVQLVESVGGLVQAGGSLRLSCAASGSTFYENTMGWYRQAPGKERELVAAISFRGGSRYYADSVKGRFTISRDNAKNTVYLQMNSLKPEDTAVYYCNADDSPVPSIRFDYWGEGTQVTVSS	low polyreactivity
QVQLVESGGGLVQAGGSLRLSCAASGLTFRWYAMGWYRQAPGKEREWVAAISSGGRTYYADSVKGRFTISRDNAKNTVYLHMNSLKPEDTAVYYCNKRTLDYGFGSYGRDYWGQGTQVTVSS	high polyreactivity

Sequence	polyreactivity (PSR sort gate)
QVQLVESGGGLVQAGGSLRLSCAASGRIFKIYAMGWYRQAPGKERELVAAISGRGGSTYYADSVKGRFTISRDNAKNTVYLQMNSLKPEDTAVYYCAAVGYGFSAYSTYDYWGQGTQVTVSS	high polyreactivity
QVQLVESGGGLVQAGGSLRLSCAASGRIFSSNAMGWYRQAPGKERELVAAITKSGGGTYYADSVKGRFTISRDNAKNTVYLQMNSLKPEDSAVYYCAADHGRPYFSYDYWGQGTQVTVSS	low polyreactivity
QVQLVESGGGLVQAGGSLRLSCAASGRTFYLYAMGWYRQAPGKERELVAAITWRGGSTYYADSVKGRFTISRDNAKNTVYLQMNSLKPEDTAVYYCSAVTFFYYSAVRYEYYYWGQGTQVTVSS	high polyreactivity
QVQLVESGGGLVQAGGSLRLSCAASGIFSNYAMGWYRQAPGKERELVAAIRSRSGTTYYADSVKGRFTISRDNAKNTVYLQLNSLKPEDTAVYYCDAGGKSRSYYWGQGTQVTVSS	high polyreactivity
QVQLVESGGGLVQAGGSLRLSCAASGFIFWRNAMGWYRQAPGKERELVAAITSGDRTNYADSVKGRFTISRDNAKNTVYLQMNSLKPEDTAVYYCNARRLRLVSYDYCGQGTQVTVSS	low polyreactivity
QVQLVESGGGLVQAGGSLRLSCAASGSTSRIYAMGWYRQAPGKERELVAAITRSGGSTYYADSVKGRFTISRDNAKNTVYLQMNSLKPEDTAVYYCAADYRSHSRYRYDKVDYWGQGTQVTVSS	high polyreactivity
QVQLVESGGGLVQAGGSLRLSCAASGSTFISYAMGWYRPAPGKERELVAAISRNGGSTDYADSVKGRFTISRDNAKNSVYLQMNSLKPEHTAVYYCAAEYDTWWGGYDYWGQGTQVTVSS	high polyreactivity
QVQLVESGGGLVQAGGSLRLSCAASGFTFGGNDMGWYRQAPGKERELVAAISWSGGSTYYADSVKGRFTISRDNAKNTVYLLMNSLKPEDTAVYYCAADYYYGKVHFDYWGQGTQVTVSS	low polyreactivity
QVQLVESCGGLVQAGGSLRLSCAASGRTFYFYAMGWYRQAPGKERELVAAISSTGGSTYYADSVKGRFTISRDNAKNTVYIQMNSLKPEDTAVYYCAARKSPRGRGEFYWGQGTQVTVSS	high polyreactivity
QVQLVESGGGLVQAGGSLRLSCAASGFIFDYYAMGWYRQAPGKERELVAGISNGDTTYYADSVKGRFTISRDNAKNTVYLQMNSLKPEDTAVYYCNAKPFYWVLGGYDYWGQGTQVTVSS	low polyreactivity
QVQLVESGGGLVQAGGSLRLSCAASGSISVFYAMGWYRQAPGKEREFVAAISWRGGRTYYEDSVKARFTISRDNANNTVYLQMNSLKPEDTAVYYCAKDIVRGRSSRYDYWGQGTQVTVSS	high polyreactivity
QVQLVESGGGLVQAGGSLRLSCAASGNTFNANAMGWYRQAPGKERELVAVISANGGRTYYADSVKGRFTISRDNAKNTVYLQMNSLKPEDTAVYYCATGRYGGQGYPFYYWGQGTQVTVSS	low polyreactivity
QVQLVESGGGLVQAGGSLRLSCAASGYIFLSYAMGWYIQAPGKERELVAAISRGGRTYYADSVKGRFTISRDNAKNTVYLQMNSLKPEDTAVYYCNAVSTPGKYGYWGQGTQVTVSS	high polyreactivity
QVQLVESGGGLVQAGGSLRLSCAASGYTFQPYTMGWYRQAPGKERELVAAISKSGTRTYYADSVKGRFTISRDNEKNTVYLQMNSLKPEDTAVYYCAARYTGFLFDYWGQGTQVTVSS	high polyreactivity
QVQLVESGGGLVQAGGSLRLSCAASGRIFSTNARGWYRQAPGKQRELVAVITGIGGITYYADSVKGRFTISSDNAKNTVYLKMNSLKPEDTAVYYCGADPISEFYWGVKDRYDYWGQGTQVTVSS	low polyreactivity
